Data reported in patent US20160185837A1 (Medimmune Limited, priority 2013, published 2016).
Where two headings read alike, the source gives them in different places. Ends that are not written are not given here.

How the values were obtained:
Assay type in all cases: cell-based
[1] = molecular target: T1, human GLP-1 receptor (hGLP-1r) (Homo sapiens, UniProt P43220); assay: BSA-cAMP assay, cells expressing human GLP-1 receptor; conditions: BSA-cAMP assay
T1 construct: expressed in transfected cells
T1 sequence (P43220 24-463): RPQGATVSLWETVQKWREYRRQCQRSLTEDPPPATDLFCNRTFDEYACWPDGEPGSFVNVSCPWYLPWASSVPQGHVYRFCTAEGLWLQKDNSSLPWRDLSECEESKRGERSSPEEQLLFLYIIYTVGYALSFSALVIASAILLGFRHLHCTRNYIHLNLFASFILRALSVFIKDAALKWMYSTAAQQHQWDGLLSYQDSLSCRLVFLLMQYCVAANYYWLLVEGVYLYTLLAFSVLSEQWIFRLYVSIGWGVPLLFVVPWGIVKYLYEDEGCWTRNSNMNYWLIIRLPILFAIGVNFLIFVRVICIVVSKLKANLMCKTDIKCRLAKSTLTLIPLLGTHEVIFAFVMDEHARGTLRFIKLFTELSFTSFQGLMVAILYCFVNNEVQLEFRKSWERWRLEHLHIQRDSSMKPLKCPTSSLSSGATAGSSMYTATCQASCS
Procedure: (§1) One basic cAMP assays was performed, differing in the medium used for the assay, the “BSA-cAMP assay”:
(§2) BSA-based assay medium: 0.1% bovine serum albumin (BSA) in
(§3) In certain aspects, the assay can also be carried out in medium supplemented with serum albumin that corresponds to the receptor being tested, e.g., human serum albumin for testing cAMP activity at hGIPr or hGLP-1r, rat serum albumin for testing cAMP activity at rGIPr or rGLP-1r, and so on. […] All sample dilutions were made in duplicate.
(§4) A frozen cryo-vial of cells expressing the receptor of interest was thawed rapidly in a water-bath, transferred to pre-warmed assay media and spun at 240×g for 5 minutes. Cells were re-suspended in assay buffer at an optimized concentration (e.g., hGLP-1r and hGIPr cells at 0.5×10^5 cells/ml).
(§5) To this, 5 μL cell suspension was added and the plates incubated at room temperature for 30 minutes.
(§6) cAMP levels were measured using a commercially available cAMP dynamic 2 HTRF kit (Cisbio, Cat #62AM4PEJ), following the two step protocol as per manufacturer's recommendations. In brief; anti-cAMP cryptate (donor fluorophore) and cAMP-d2 (acceptor fluorophore) were made up separately by diluting each 1/20 in conjugate & lysis buffer provided in the kit. 5 μL anti-cAMP cryptate was added to all wells of the assay plate, and 5 μL cAMP-d2 added to all wells except non-specific binding (NSB) wells, to which conjugate and lysis buffer was added. […] Data was transformed to % Delta F as described in manufacturer's guidelines and then transformed to percent activation of maximal native agonist response and analysed by 4-parameter logistic fit to determine EC50 values.
(§7) We used unconstrained 4 parameter logistic fit of data, curve mid-point to determine EC50. This was tested on two occasions, not two batches.

[2] = molecular target: T2, human GIP receptor (hGIPr) (Homo sapiens, UniProt P48546); assay: BSA-cAMP assay, cells expressing human GIP receptor; conditions: BSA-cAMP assay
T2 construct: expressed in transfected cells
T2 sequence (P48546 22-466): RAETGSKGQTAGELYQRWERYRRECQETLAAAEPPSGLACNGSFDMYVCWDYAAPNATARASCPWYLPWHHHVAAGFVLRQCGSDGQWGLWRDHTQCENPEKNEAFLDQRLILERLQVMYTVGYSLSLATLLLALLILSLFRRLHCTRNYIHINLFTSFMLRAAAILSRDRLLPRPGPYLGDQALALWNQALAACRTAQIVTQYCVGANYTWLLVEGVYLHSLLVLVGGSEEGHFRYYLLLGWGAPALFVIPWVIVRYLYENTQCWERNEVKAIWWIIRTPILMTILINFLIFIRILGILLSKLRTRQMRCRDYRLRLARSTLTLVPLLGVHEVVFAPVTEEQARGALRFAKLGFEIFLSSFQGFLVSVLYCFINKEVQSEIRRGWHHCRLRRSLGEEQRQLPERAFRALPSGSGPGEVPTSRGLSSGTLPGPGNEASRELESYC
Procedure: For human GIPr, two different lines were used, shown as “hGIPr” and “hGIPr (C3)” in Table 11.
as §1, §2, §3, §4, §5, §6, §7

[3] = molecular target: T3, human glucagon receptor (GCGr) (Homo sapiens, UniProt P47871); assay: BSA-cAMP assay, cells expressing human glucagon receptor
T3 construct: expressed in transfected cells; host or cells: HEK293s or CHO cells
T3 sequence (P47871 26-477): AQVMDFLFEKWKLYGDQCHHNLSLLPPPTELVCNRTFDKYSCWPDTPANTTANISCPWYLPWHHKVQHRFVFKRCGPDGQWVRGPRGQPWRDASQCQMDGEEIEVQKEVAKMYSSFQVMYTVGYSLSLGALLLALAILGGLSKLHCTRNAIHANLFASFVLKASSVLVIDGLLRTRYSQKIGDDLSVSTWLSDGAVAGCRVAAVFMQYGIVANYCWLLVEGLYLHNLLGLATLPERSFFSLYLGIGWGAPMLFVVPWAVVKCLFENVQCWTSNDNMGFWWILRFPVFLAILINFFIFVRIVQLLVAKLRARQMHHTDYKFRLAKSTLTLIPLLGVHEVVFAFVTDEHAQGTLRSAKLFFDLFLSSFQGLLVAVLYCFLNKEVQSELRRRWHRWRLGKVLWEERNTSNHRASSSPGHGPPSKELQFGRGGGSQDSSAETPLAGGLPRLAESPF
Procedure: as §1, §2, §3, §4, §5, §6, §7

[4] = molecular target: T4, mouse GIP receptor (mGIPr) (Mus musculus, UniProt Q0P543); assay: BSA-cAMP assay, cells expressing mouse GIP receptor; conditions: Batch 1; BSA-cAMP assay; read-out: mGIPr cAMP activity EC50
T4 construct: expressed in transfected cells; host or cells: HEK293s or CHO cells
T4 sequence (Q0P543 19-460): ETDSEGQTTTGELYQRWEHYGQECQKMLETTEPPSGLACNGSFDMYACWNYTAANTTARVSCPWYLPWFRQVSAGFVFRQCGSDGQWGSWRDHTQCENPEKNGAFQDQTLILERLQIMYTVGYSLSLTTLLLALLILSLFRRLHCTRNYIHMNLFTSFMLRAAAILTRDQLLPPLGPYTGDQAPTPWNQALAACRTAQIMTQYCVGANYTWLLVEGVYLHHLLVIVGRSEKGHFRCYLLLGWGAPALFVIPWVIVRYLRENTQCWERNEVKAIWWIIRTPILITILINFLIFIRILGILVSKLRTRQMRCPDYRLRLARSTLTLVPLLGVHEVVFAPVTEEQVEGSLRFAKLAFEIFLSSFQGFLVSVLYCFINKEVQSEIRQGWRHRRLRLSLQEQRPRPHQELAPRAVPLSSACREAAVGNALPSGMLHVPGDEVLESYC
Procedure: as §1, §2, §3, §4, §5, §6, §7
(§8) In order to be able to carry out in vivo studies in rodents, IP088 was tested for potency against the mouse receptors mGIPr and mGLP-1r as well as the rat receptors rGIPr and rGLP-1r, using cells expressing the respective receptors in the cAMP assay described above.

[5] = molecular target: T5, rat GLP-1 receptor (rGLP-1r) (Rattus norvegicus, UniProt P32301); assay: BSA-cAMP assay, cells expressing rat GLP-1 receptor; conditions: Batch 1; BSA-cAMP assay; read-out: rGLP1r cAMP activity EC50
T5 construct: expressed in transfected cells; host or cells: HEK293s or CHO cells
T5 sequence (P32301 22-463): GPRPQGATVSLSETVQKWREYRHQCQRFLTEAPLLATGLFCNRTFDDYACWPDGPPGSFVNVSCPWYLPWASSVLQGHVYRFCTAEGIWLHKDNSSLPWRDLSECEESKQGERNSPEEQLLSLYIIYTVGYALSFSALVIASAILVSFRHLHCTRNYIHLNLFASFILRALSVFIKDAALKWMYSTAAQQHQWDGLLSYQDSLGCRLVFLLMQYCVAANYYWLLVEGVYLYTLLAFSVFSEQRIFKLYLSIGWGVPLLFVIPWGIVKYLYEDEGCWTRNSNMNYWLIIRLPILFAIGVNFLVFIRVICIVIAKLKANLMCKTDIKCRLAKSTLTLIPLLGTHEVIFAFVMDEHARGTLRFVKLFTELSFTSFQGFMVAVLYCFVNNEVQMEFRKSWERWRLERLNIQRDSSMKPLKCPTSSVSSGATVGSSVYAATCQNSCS
Procedure: as §1, §2, §3, §4, §5, §6, §7, §8

[6] = molecular target: T6, rat GIP receptor (rGIPr) (Rattus norvegicus, UniProt P43219); assay: BSA-cAMP assay, cells expressing rat GIP receptor; conditions: Batch 1; BSA-cAMP assay; read-out: rGIPr cAMP activity EC50
T6 construct: expressed in transfected cells; host or cells: HEK293s or CHO cells
T6 sequence (P43219 19-455): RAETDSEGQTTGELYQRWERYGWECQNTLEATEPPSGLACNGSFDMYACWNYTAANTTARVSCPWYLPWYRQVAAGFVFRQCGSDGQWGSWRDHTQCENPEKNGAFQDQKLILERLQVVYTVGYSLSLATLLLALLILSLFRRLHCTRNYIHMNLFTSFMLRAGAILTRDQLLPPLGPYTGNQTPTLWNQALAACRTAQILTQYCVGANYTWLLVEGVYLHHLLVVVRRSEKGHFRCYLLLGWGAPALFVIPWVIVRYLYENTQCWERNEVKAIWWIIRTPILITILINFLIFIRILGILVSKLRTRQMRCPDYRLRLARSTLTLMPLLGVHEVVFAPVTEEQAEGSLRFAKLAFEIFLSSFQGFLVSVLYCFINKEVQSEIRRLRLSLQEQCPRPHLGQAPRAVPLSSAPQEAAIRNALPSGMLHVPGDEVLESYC
Procedure: as §1, §2, §3, §4, §5, §6, §7, §8

[7] = molecular target: T7, mouse GLP-1 receptor (mGLP-1r) (Mus musculus, UniProt O35659); assay: BSA-cAMP assay, cells expressing mouse GLP-1 receptor; conditions: Batch 1; BSA-cAMP assay; read-out: mGLP1r cAMP activity EC50
T7 construct: expressed in transfected cells; host or cells: HEK293s or CHO cells
T7 sequence (O35659 22-463): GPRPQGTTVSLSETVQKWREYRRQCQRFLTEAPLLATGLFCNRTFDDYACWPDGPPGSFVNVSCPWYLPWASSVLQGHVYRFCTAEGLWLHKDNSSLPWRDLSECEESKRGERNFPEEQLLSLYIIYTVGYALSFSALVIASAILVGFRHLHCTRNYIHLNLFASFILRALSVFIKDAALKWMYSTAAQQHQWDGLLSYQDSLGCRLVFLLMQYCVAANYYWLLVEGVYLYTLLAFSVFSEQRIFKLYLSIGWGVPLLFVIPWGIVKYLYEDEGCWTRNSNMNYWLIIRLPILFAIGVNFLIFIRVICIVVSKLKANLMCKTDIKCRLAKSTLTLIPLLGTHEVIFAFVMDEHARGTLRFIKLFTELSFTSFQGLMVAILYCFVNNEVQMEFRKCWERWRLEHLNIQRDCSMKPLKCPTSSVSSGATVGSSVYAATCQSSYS
Procedure: as §1, §2, §3, §4, §5, §6, §7, §8

[8] = batch 1 unless a batch is given, read-out: cAMP activity hGLP1r (EC50)
[9] = batch 1 unless a batch is given, read-out: cAMP activity hGIPr (EC50)
[10] = Batch 1, read-out: hGCGr cAMP activity EC50
[11] = Batch 1, read-out: hGLP1r cAMP activity EC50

EC50 [3, 10] [nM]	EC50 [1, 11] [nM]	EC50 [4] [nM]	Substance	further results
–	–	–	IP238 (HGEGTFTSDVSSYLEGQAAKEFIAWLVKGGGGGGSGGGGSGGGGSAESKYGPPCPPC; also: forms dimer via hinge disulfides)	EC50 [1, 8]: 0.058 nM; EC50 [2, 9]: 310 nM
> 3210	20	–	IP353 (YSEGTFTSDYAAAAEAAAAAAFAAWLAKAAGGGGGSGGGGSGGGGSGGGGSACPPC)	EC50 ([2]; Batch 1, read-out: hGIPr cAMP activity EC50): 1 nM
–	–	–	IP193 (HGEGTFTSDVSSYLEGQAAKEFIAWLVKGAAAGGSGSTASSGSGSATGGGGCPPCPAPEF; also: forms dimer via hinge disulfides)	EC50 ([3]; batch 1 unless a batch is given, read-out: cAMP activity hGCGr (EC50)): 780 nM; EC50 [1, 8]: 0.064 nM; EC50 [2, 9]: 450 nM
21	0.082	2.6	IP420: Fc fusion, IgG1-TM, SEQ ID NO:391; agonist peptide YSEGTFTSDYSKLLEEEATRLFIEWLLAGG (YSEGTFTSDYSKLLEEEATRLFIEWLLAGGGGGGSGGGGSGGGGSGGGGSATHTCPPC)	–
> 163	0.25	2.3	IP407: Fc fusion, IgG1-TM, SEQ ID NO:384; agonist peptide YSEGTFTSDYSKLLEEEAIRLFIEWLLAGG (YSEGTFTSDYSKLLEEEAIRLFIEWLLAGGGGGGSGGGGSGGGGSGGGGSATHTCPPC)	–
7.6	0.19	3.7	IP413: Fc fusion, IgG1-TM, SEQ ID NO:388; agonist peptide YSEGTFTSDYSKLLEEEASRLFIEWLLAGG (YSEGTFTSDYSKLLEEEASRLFIEWLLAGGGGGGSGGGGSGGGGSGGGGSATHTCPPC)	EC50 [5]: 0.048 nM; EC50 [6]: > 113 nM; EC50 [7]: 8.9 nM
–	–	–	IP319 (YSEGTFTSDYSKLLEAAAAAAFAAWLAAAAGGGGGSGGGGSGGGGSGGGGSACPPC)	EC50 ([3]; Batch 2, read-out: hGCGr cAMP activity EC50): > 445 nM; EC50 ([1]; Batch 2, read-out: hGLP1r cAMP activity EC50): 170 nM
